The results in this text go back to patent US5336667A, “Method for inhibiting the ahesion of platelet with alboaggregins: platelet agonists which bind to platelet membrane glycoprotein IB” (Temple University of the Commonwealth System of Higher …, priority 1992, dated 1994).

The subject of assay [1] is alboaggregin A (AL-A), Trimeresurus albolabris venom, SEQ ID NOS: 1, 2, 3 and 4. The experiment in a line: Platelet agglutination induced by AL-A in the presence of inhibitors. Type of assay: cell-based. How it is done: (§1) Agglutination of platelet-rich plasma, washed platelets and fixed platelets by AL-B was performed according to the method described by Kirby, J Lab Clin. Med. 100, 963-976 (1982). Platelet agglutination was assayed at 37° C. with constant stirring at 1200 RPM in an aggregometer and the extent of light transmission change was measured after two minutes. AL-B was added to suspensions of (A) fixed washed platelets or (B) washed platelets at final concentrations of (A) 0.2, 0.4, 0.6, 0.9 and 1.7 μg/ml and (B) 0.12, 0.24 and 0.48 μg/ml, respectively. The platelet concentration was approximately 3×10^8 platelets/ml in each suspension. AL-B agglutinated both fixed platelets and washed platelets in a dose-dependent manner. Once platelets were maximally agglutinated by AL-B, addition of bovine vWF gave no further response.
All three alboaggregins agglutinated platelet rich plasma and fixed platelets directly. To induce the same amount of platelet agglutination by bovine vWF, twice as much vWF was required to obtain the same change in light transmission. […] Platelet agglutination activity of each of the alboaggregins was similar in terms of their EC50 values.
(§2) Platelet agglutination induced by AL-A or AL-B was not inhibited by EDTA (10 raM) , soybean trypsin inhibitor (0.5 mg/ml) N-ethylmaleimide, (10 raM) or PGE1 (0.35 μM).

In assay [2] the target is T1, alboaggregin B (AL-B), Trimeresurus albolabris venom (Trimeresurus albolabris, UniProt P81115+P81116).
T1 sequence (P81115 24-156): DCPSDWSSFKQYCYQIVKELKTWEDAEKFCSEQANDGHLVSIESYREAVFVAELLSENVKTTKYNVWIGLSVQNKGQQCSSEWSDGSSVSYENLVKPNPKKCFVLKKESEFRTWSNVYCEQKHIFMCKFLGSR
T1 sequence (P81116 24-146): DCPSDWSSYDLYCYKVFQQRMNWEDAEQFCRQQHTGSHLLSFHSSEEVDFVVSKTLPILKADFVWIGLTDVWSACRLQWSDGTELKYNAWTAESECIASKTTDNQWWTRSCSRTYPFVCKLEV
The experiment in a line: Platelet agglutination induced by AL-B in the presence of inhibitors. The format is cell-based. How it is done: as §1, §2

Assay [3] has as its target T1, alboaggregin B (AL-B), Trimeresurus albolabris venom. The experiment in a line: Effect of sugars on binding of AL-B to platelets (lectin test). The following applies: sugar at concentrations up to 5 mg/ml. The procedure: Several galactose-specific lectins that agglutinate platelets have been reported in snake venoms. Their presence can be detected by inhibition of lectin-induced agglutination by galactose or other sugars. In order to determine whether the alboaggregins function as lectins, we examined the effects of eight different sugars (lactose, galactose, galactosamine, mannosamine, glucosamine, N-acetyl glucosamine, α-methyl glucoside and α-methyl mannoside) at concentrations up to 5 mg/ml.
Binding of ^125 I-bovine vWF and 125I-alboaggregins to labeled platelets was carried out according to Kirby, J. Lab. Clin. Med. 100, 963-976 (1982). Platelets were diluted and incubated at 37° C. for at least 10 min. prior to performing binding studies. Radiolabeled proteins were diluted in Tris-saline buffer containing 1 mg/ml of BSA and preincubated with buffer or a sample to be tested for inhibitory activity. The platelet suspension (1.9×10^8 platelets/ml) was added to the radiolabeled protein (26 ng/ml) and incubated at 37° C. for different periods of time. Unlabeled AL-B (1.8 μg/ml or 8.6 μg/ml) was added to duplicate suspensions after 5 min. of incubation with ^125 I-AL-B. Platelets were separated from free ligand by centrifugation for 4 min. at 12000 g. Supernatant and pellets were counted in an […] gamma counter to determine the amount of free and platelet-bound radioactivity, respectively.

Assay [4] addresses human platelet membrane glycoprotein Ib (human) (UniProt P07359). The experiment in a line: direct binding of 125I-AL-C to platelets.
Assay [5] shares this target. Briefly: unlabeled AL-C competing on platelets; competitor 125I-AL-A.
Assay [6] shares this target. Briefly: unlabeled AL-C competing on platelets; competitor 125I-AL-B.
Assay [7] has the same target. Briefly: unlabeled AL-C competing on platelets; competitor 125I-AL-C.
The target is the same in assay [8]. Briefly: unlabeled AL-C competing on platelets; competitor 125I-bovine vWF.
The target is the same in assay [9].
The target is the same in assay [10]. Briefly: Scatchard analysis of 125I-echicetin binding to fixed platelets.
For assay [11] the target is unchanged. Briefly: radioligand competition on platelets; competitor 125I-echicetin. A general note: Displacement assays read how much labelled ligand stays bound in the presence of the test substance.
For assay [12] the target is unchanged. Briefly: radioligand competition on fixed platelets; competitor 125I-bovine vWF.
The target is the same in assay [13]. The experiment in a line: Scatchard analysis of 125I-echicetin binding to fixed platelets, three experiments.
The target of assay [14] is T2, human platelet membrane glycoprotein Ib (human, UniProt P07359). Briefly: radioligand competition on platelets; competitor 125I-echicetin.
The target in assay [15] is T2, human platelet membrane glycoprotein Ib. Briefly: unlabeled bovine vWF competing on platelets; competitor 125I-AL-A.
Assay [16] shares this target. Briefly: unlabeled bovine vWF competing on platelets; competitor 125I-AL-B.
The target is the same in assay [17]. The experiment in a line: unlabeled bovine vWF competing on platelets; competitor 125I-AL-C.
Assay [18] has the same target. Briefly: unlabeled bovine vWF competing on platelets; competitor 125I-bovine vWF.
Assay [19] has the same target. The experiment in a line: radioligand competition on fixed platelets; competitor 125I-bovine vWF (0.57 µg/ml).

What is called IC50 is the concentration needed to halve the response being measured. Low readings indicate inhibition by little substance, high ones a need for much substance. As usually defined, the Kd is a measure of binding affinity in units of concentration. A low value points to higher affinity.

As for `O=C(O)CN(CCN(CC(=O)O)CC(=O)O)CC(=O)O` [EDTA], in [1] (EDTA 10 raM), the “inhibition of platelet agglutination induced by AL-A” value (“inhibition … by AL-A” below) is on record as “not inhibited”. Also, in assay [2] (EDTA 10 raM), the “inhibition of platelet agglutination induced by AL-B” value (“inhibition … by AL-B” below) was “not inhibited”.
For the molecule `CC(=O)N[C@H]1C(O)O[C@H](CO)[C@@H](O)[C@@H]1O` (stereo partly drawn) [N-acetyl glucosamine], in [3], the “effect on the binding of AL-B to platelets” value (“effect on the binding of AL-B” below) was “None of these sugars showed any effect”.
`CCN1C(=O)C=CC1=O` [N-ethylmaleimide]: the “inhibition … by AL-A” value in assay [1] (N-ethylmaleimide 10 raM) is given as “not inhibited”. Further, the “inhibition … by AL-B” value in assay [2] (N-ethylmaleimide 10 raM) is listed as “not inhibited”.
With `CCCCC[C@H](O)/C=C/[C@H]1[C@H](O)CC(=O)[C@@H]1CCCCCCC(=O)O` [PGE1], the “inhibition … by AL-A” value in assay [1] (PGE1 0.35 μM) is on record as “not inhibited”. Also, in assay [2] (PGE1 0.35 μM), the “inhibition … by AL-B” value is “not inhibited”.
With `N[C@H]1C(O)O[C@H](CO)[C@H](O)[C@@H]1O` (stereo partly drawn) [galactosamine], the “effect on the binding of AL-B” value in [3] is reported as “None of these sugars showed any effect”.
Still for that read-out and setting: the result for `N[C@H]1C(O)O[C@H](CO)[C@@H](O)[C@@H]1O` (stereo partly drawn) [glucosamine] reads “None of these sugars showed any effect”.
In the case of `OC[C@H]1O[C@@H](O[C@H]2[C@H](O)[C@@H](O)C(O)O[C@@H]2CO)[C@H](O)[C@@H](O)[C@H]1O` (stereo partly drawn) [lactose], the “effect on the binding of AL-B” value in assay [3] is “None of these sugars showed any effect”.
For `N[C@@H]1C(O)O[C@H](CO)[C@@H](O)[C@@H]1O` (stereo partly drawn) [mannosamine], the “effect on the binding of AL-B” value in assay [3] is on record as “None of these sugars showed any effect”.
Still for that read-out and setting: the result for `CO[C@H]1O[C@H](CO)[C@@H](O)[C@H](O)[C@H]1O` [α-methyl glucoside] reads “None of these sugars showed any effect”.
On the same count and under the same terms, the result for `CO[C@H]1O[C@H](CO)[C@@H](O)[C@H](O)[C@@H]1O` [α-methyl mannoside] reads “None of these sugars showed any effect”.
In the case of alboaggregin C (ligand), in assay [4], the percent of total radioactivity added that bound came out at 78%. In addition, the half-maximal inhibitory concentration (IC50) in assay [5] amounted to 1.7 µg/mL; in [6] it was 1 µg/mL; in assay [7] it was 0.3 µg/mL; in assay [8], 0.2 µg/mL.
As to echicetin (ligand), in [9], the concentration for 50% inhibition of AL-B-induced agglutination of fixed platelets was determined as 1.05 µg/mL, the concentration for 50% inhibition of botrocetin/human vWF-induced agglutination of fixed platelets was 1.1 µg/mL, the concentration for 50% inhibition of bovine vWF-induced agglutination of fixed platelets turned out to be 0.4 µg/mL and the concentration for 50% inhibition of bovine vWF-induced agglutination of washed platelets amounted to 0.15 µg/mL. This molecule gave a binding sites per platelet (binding sites per platelet) in [10] of 45000. Besides, the IC50 in [11] was more than 0.5 µg/mL. The concentration for half-maximal inhibition (IC50) in assay [12] was found to be 0.2 µg/mL. The same molecule had a Kd in [13] of 30 nM.
Regarding galactose, the “effect on the binding of AL-B” value in [3] is listed as “None of these sugars showed any effect”.

B1: bovine von Willebrand factor (ligand)
chain: SLSCRPPMVKVVCPADNPRAEGLECTKTCQNYDLECMSTGCVSGCLPAPGMVRHENRCVALERCPCFHQGREYAPGDRVKVDCNSCVCQDRKWNCTDHVCDASCSALGLAHYFTFDGLKYLFPGECQYVLVQDHCGSNPGTFRVLVGNEGCSVPSLKCRKRITILVEGGEIELFD
Take B1: the half-inhibitory concentration (IC50) is more than 20 µg/mL in assay [14]; more than 10 µg/mL in assay [15]; more than 10 µg/mL in assay [16]; more than 10 µg/mL in assay [17]; 2.1 µg/mL in assay [18]; approximately 10 µg/mL in assay [19].
